{"source": "paper PMC5969521", "about": "“Actin-related proteins regulate the RSC chromatin remodeler by weakening intramolecular interactions of the Sth1 ATPase” (Communications Biology, 2018)", "key": {"Sth1(301-1097) [1]": {"molecular_target": "T1, Sth1(301-1097) (budding yeast, UniProt P32597 301-1097)", "T1 sequence (P32597 301-1097)": "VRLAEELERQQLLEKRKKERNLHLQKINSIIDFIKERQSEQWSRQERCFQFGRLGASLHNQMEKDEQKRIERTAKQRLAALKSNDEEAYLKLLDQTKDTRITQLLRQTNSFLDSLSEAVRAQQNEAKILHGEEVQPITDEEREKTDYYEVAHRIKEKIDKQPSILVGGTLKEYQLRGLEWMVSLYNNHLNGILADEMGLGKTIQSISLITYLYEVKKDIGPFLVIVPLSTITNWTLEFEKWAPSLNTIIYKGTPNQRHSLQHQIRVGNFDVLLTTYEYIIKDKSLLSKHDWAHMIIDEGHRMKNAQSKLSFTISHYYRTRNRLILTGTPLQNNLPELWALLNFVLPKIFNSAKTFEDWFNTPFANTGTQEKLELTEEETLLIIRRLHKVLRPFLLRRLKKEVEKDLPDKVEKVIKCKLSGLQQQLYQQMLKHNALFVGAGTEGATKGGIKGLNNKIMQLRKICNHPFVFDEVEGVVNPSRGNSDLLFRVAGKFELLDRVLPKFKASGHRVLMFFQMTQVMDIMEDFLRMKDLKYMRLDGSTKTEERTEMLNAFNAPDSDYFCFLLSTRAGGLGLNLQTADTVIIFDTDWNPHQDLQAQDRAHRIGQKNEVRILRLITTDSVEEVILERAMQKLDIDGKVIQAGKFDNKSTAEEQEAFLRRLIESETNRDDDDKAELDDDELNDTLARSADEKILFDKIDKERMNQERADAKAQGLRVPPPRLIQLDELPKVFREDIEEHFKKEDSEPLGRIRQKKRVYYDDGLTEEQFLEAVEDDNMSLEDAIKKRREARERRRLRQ", "assay": "EMSA", "conditions": "apparent Kd, Anisotropy: 20 mM HEPES pH 7.5, 50 mM NaCl, 2.5 mM MgCl2, 5% glycerol, 1 mM DTT, 0.1 mg/mL BSA, 1 mM AMPPNP or ADP, 50 nM DNA, 20 C, EMSA: 20 mM HEPES pH 7.5 …"}, "[2]": {"molecular_target": "T2, Rtt102;Arp7;Arp9;Sth1(301-1097) (budding yeast;budding yeast;budding …, UniProt P53330;Q12406;Q05123;P32597 1-157;1-477;1-467;301-1097, |||)", "assay": "EMSA", "conditions": "apparent Kd, Anisotropy: 20 mM HEPES pH 7.5, 50 mM NaCl, 2.5 mM MgCl2, 5% glycerol, 1 mM DTT, 0.1 mg/mL BSA, 1 mM AMPPNP or ADP, 50 nM DNA, 20 C, EMSA: 20 mM HEPES pH 7.5 …"}, "[3]": {"molecular_target": "T3, Rtt102-Arp7/9-Sth1_301–1097 (Saccharomyces cerevisiae, UniProt P32597)", "T3 construct": "gene STH1; quaternary complex; Sth1 residues 301-1097 (HSA, pHSA, ATPase domains), Ni-NTA purified; with Actin-related protein 7; Actin-like protein ARP9; Regulator of Ty1 transposition protein 102", "T3 sequence (P32597 301-1097, one chain of several)": "as the sequence (P32597 301-1097) above", "assay": "phosphate release (MESG/purine nucleoside phosphorylase, […] nm)", "assay_type": "biochemical", "conditions": "1 mM ATP, plasmid DNA, 2.5 mM MgCl2, pH 7.0, 22 °C; hydrolysis by the Sth1 subunit"}, "Rtt102-Arp7/9": {"molecular_target": "T4, Rtt102-Arp7/9 (Saccharomyces cerevisiae, UniProt Q12406)", "T4 construct": "heterotrimer reconstituted from Rtt102 and Arp7/9 (2:1 mix, gel filtration); Rtt102 157 aa; with Actin-like protein ARP9; Regulator of Ty1 transposition protein 102", "T4 sequence (Q12406 1-477)": "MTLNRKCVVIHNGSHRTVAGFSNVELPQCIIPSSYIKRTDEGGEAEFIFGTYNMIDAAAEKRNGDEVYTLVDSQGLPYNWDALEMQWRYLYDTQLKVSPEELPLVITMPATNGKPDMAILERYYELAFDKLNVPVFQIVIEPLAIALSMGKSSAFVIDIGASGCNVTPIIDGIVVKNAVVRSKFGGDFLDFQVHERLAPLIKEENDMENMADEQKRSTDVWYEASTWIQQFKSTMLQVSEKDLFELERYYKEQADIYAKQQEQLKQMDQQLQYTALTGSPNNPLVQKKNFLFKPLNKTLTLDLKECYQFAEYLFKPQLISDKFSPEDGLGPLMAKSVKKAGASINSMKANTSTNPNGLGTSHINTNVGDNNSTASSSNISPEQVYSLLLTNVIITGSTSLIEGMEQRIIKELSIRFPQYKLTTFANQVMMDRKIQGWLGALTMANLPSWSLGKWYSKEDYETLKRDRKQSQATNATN", "T4 sequence (Q05123 1-467 partner)": "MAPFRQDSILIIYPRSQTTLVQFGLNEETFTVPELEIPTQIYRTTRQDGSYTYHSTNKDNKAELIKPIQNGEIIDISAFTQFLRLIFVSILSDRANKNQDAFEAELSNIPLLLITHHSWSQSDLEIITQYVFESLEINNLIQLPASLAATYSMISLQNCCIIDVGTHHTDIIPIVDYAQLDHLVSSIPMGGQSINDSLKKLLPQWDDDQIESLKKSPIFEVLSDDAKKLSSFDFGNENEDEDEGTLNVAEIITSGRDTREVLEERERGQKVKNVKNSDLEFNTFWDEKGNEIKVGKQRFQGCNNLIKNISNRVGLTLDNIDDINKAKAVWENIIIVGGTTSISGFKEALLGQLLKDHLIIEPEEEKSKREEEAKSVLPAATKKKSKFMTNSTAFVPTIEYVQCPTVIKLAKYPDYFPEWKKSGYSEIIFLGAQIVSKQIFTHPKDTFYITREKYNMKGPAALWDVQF", "T4 sequence (P53330 1-157 partner)": "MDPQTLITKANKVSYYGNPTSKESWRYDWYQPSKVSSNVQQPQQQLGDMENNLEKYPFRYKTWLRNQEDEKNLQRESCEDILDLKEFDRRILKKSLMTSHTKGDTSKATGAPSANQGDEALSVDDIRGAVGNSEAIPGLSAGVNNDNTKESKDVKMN", "assay": "X-ray crystallography ([…] Å)", "assay_type": "binding", "conditions": "pre-incubated with 1 mM ATP; ATP bound in nucleotide cleft of Arp7, not Arp9; no cation seen; not hydrolysed"}, "[4]": {"molecular_target": "nucleosome (Xenopus laevis histone octamer on 601 nucleosomal DNA) (Xenopus laevis)", "assay": "native gel or EMSA; native gel shift, 1 mM ADP; nucleosomes held constant, Sth1 constructs up to 10 μM; 20 mM HEPES pH 7.5, 50 mM NaCl, 5% glycerol, 1 mM DTT, 0.1 mg/mL BSA, 1 mM MgCl2; 30 min room temperature, gel at 4 °C; apparent KD from a single-site hyperbolic fit"}, "[5]": {"molecular_target": "nucleosome (Xenopus laevis histone octamer on 601 nucleosomal DNA) (Xenopus laevis)", "assay": "native gel or EMSA; native gel shift, 1 mM AMPPNP; nucleosomes held constant, Sth1 constructs up to 10 μM; 20 mM HEPES pH 7.5, 50 mM NaCl, 5% glycerol, 1 mM DTT, 0.1 mg/mL BSA, 1 mM MgCl2; 30 min room temperature, gel at 4 °C; apparent KD from a single-site hyperbolic fit"}, "[6]": {"molecular_target": "Sth1(365-1097) P1swap (budding yeast; Rad54 segment from S. solfataricus) (UniProt P32597)", "sequence (P32597 whole entry)": "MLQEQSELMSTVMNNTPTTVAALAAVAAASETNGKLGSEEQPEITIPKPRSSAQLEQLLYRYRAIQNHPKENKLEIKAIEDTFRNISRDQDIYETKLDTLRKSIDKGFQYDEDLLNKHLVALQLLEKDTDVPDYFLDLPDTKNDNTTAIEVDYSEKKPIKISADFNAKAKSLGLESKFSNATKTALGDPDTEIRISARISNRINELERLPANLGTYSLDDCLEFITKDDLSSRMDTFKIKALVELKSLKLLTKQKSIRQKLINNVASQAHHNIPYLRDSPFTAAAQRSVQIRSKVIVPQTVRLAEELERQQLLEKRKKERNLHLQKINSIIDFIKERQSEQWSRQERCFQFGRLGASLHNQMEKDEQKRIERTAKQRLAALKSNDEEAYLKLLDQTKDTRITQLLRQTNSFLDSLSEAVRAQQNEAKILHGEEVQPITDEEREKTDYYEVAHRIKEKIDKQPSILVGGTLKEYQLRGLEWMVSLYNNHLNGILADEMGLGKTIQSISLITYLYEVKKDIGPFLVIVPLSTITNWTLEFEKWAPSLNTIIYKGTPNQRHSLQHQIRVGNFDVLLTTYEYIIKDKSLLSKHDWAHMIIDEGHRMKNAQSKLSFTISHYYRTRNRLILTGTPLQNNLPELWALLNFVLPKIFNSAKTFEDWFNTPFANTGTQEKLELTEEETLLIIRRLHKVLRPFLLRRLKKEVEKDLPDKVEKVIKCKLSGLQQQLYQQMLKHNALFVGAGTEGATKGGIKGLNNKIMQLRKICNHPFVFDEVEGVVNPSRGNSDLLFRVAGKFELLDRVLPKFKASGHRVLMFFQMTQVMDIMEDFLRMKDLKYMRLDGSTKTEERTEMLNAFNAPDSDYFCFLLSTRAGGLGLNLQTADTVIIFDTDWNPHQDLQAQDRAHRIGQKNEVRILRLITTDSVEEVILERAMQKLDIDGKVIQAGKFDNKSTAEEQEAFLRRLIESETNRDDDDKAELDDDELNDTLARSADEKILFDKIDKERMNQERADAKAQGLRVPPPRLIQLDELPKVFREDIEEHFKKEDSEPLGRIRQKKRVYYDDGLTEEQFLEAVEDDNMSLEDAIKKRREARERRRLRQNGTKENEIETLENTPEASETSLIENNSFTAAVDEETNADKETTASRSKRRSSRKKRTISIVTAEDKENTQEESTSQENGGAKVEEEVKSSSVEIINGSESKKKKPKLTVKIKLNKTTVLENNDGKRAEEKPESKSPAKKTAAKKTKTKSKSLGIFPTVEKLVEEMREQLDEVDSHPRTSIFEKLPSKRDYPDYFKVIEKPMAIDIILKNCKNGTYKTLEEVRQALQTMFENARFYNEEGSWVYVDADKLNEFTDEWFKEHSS", "assay": "fluorescence anisotropy", "conditions": "nucleotide state not visible in material; Anisotropy: 20 mM HEPES pH 7.5, 50 mM NaCl, 2.5 mM MgCl2, 5% glycerol, 1 mM DTT, 0.1 mg/mL BSA, 1 mM AMPPNP or ADP, 50 nM DNA, 20 C; EMSA: 20 mM HEPES pH 7.5 …"}, "[7]": {"molecular_target": "Rtt102-Arp7/9-bound His-HSA–pHSA fragment (budding yeast) (UniProt P32597)", "assay": "pull-down; TEV cleavage and co-purification assay: purified Sth1 constructs at 6 μM (±Arp7/9 and Rtt102) cut with TEV protease overnight, His-tagged N-terminal fragment held on Ni-NTA resin; 20 mM HEPES pH 7.5, 500 mM NaCl, 5% glycerol, 25 mM imidazole, 1 mM MgCl2, 0.1 mM AMPPNP; eluted with 250 mM imidazole; SDS-PAGE, Coomassie"}, "Sth1(301-1097) [8]": {"molecular_target": "T1, Sth1(301-1097)", "assay": "fluorescence anisotropy; 1 mM AMPPNP; Anisotropy: 20 mM HEPES pH 7.5, 50 mM NaCl, 2.5 mM MgCl2, 5% glycerol, 1 mM DTT, 0.1 mg/mL BSA, 1 mM AMPPNP or ADP, 50 nM DNA, 20 C; EMSA: 20 mM HEPES pH 7.5, 50 mM NaCl, 1 mM MgCl2, 5% glycerol, 1 mM DTT, 0.1 mg/mL BSA, 1 mM ADP or AMPPNP, room temperature", "conditions": "protein: recombinant; label: 5'-fluorescein; strands 21 and 22 nt: 21 bp with 1 nt 5' overhang (T) on strand 2"}, "[9]": {"molecular_target": "T2, Rtt102;Arp7;Arp9;Sth1(301-1097)", "assay": "fluorescence anisotropy; 1 mM AMPPNP; Anisotropy: 20 mM HEPES pH 7.5, 50 mM NaCl, 2.5 mM MgCl2, 5% glycerol, 1 mM DTT, 0.1 mg/mL BSA, 1 mM AMPPNP or ADP, 50 nM DNA, 20 C; EMSA: 20 mM HEPES pH 7.5, 50 mM NaCl, 1 mM MgCl2, 5% glycerol, 1 mM DTT, 0.1 mg/mL BSA, 1 mM ADP or AMPPNP, room temperature", "conditions": "protein: recombinant;recombinant;recombinant;recombinant; copies: 1;1;1;1; label: 5'-fluorescein; strands 21 and 22 nt: 21 bp with 1 nt 5' overhang (T) on strand 2"}, "Arp7;Arp9;Sth1(301-1097)": {"molecular_target": "Arp7;Arp9;Sth1(301-1097) (budding yeast;budding yeast;budding …, UniProt Q12406;Q05123;P32597 1-477;1-467;301-1097, ||)", "sequence (P32597 301-1097, chain 3 of 3, one chain of several)": "as the sequence (P32597 301-1097) above", "assay": "fluorescence anisotropy; 1 mM AMPPNP; Anisotropy: 20 mM HEPES pH 7.5, 50 mM NaCl, 2.5 mM MgCl2, 5% glycerol, 1 mM DTT, 0.1 mg/mL BSA, 1 mM AMPPNP or ADP, 50 nM DNA, 20 C; EMSA: 20 mM HEPES pH 7.5, 50 mM NaCl, 1 mM MgCl2, 5% glycerol, 1 mM DTT, 0.1 mg/mL BSA, 1 mM ADP or AMPPNP, room temperature", "conditions": "protein: recombinant;recombinant;recombinant; copies: 1;1;1; label: 5'-fluorescein; strands 21 and 22 nt: 21 bp with 1 nt 5' overhang (T) on strand 2"}, "Sth1(365-1097)": {"molecular_target": "Sth1(365-1097) (budding yeast, UniProt P32597 365-1097)", "sequence (P32597 365-1097)": "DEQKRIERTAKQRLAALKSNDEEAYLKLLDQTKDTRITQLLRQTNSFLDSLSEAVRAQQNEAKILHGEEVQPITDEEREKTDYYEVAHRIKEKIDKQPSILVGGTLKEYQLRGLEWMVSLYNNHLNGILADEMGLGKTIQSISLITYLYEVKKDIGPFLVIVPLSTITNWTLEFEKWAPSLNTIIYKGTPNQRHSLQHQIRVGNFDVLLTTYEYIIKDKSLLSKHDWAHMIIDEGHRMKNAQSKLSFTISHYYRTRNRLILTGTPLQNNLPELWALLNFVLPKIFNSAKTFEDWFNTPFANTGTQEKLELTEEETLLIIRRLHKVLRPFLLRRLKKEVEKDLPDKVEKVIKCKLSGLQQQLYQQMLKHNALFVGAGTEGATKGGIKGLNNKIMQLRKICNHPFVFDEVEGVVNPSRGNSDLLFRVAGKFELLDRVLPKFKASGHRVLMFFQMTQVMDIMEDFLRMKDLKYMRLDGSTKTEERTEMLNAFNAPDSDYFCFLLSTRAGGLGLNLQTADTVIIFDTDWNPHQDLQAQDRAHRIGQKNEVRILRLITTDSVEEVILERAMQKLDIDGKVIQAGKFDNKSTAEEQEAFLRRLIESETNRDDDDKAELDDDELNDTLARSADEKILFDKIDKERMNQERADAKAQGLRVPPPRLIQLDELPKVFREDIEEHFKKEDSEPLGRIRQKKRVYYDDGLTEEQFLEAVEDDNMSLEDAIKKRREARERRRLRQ", "assay": "fluorescence anisotropy; nucleotide state not visible in material; Anisotropy: 20 mM HEPES pH 7.5, 50 mM NaCl, 2.5 mM MgCl2, 5% glycerol, 1 mM DTT, 0.1 mg/mL BSA, 1 mM AMPPNP or ADP, 50 nM DNA, 20 C; EMSA: 20 mM HEPES pH 7.5, 50 mM NaCl, 1 mM MgCl2, 5% glycerol, 1 mM DTT, 0.1 mg/mL BSA, 1 mM ADP or AMPPNP, room temperature", "conditions": "protein: recombinant; label: 5'-fluorescein; strands 21 and 22 nt: 21 bp with 1 nt 5' overhang (T) on strand 2"}}}
{"molecule": "601 nucleosome (Xenopus laevis core histone octamer)", "values": [{"measurement": "Kd", "setting": "Sth1(301-1097) [1]; 1 mM ADP", "result": 670, "unit": "nM"}, {"measurement": "Kd", "setting": "Sth1(301-1097) [1]; 1 mM AMPPNP", "result": 670, "unit": "nM"}, {"measurement": "Kd", "setting": "[2]; 1 mM ADP", "result": 510, "unit": "nM"}, {"measurement": "Kd", "setting": "[2]; 1 mM AMPPNP", "result": 460, "unit": "nM"}]}
{"molecule": "Nc1ncnc2c1ncn2[C@@H]1O[C@H](COP(=O)(O)OP(=O)(O)OP(=O)(O)O)[C@@H](O)[C@H]1O", "note": "[ATP]", "values": [{"measurement": "phosphate release (MESG/purine nucleoside phosphorylase, 360 nm)", "setting": "[3]", "result": "displays strong DNA-dependent ATPase activity catalyzed by subunit Sth1"}, {"measurement": "X-ray crystallography (3.25 Å)", "setting": "Rtt102-Arp7/9", "result": "showed the presence of ATP in the nucleotide-binding cleft of Arp7 but not Arp9"}]}
{"molecule": "Rtt102-Arp7/9-Sth1_(301–1097) quaternary complex (from UniProt P32597 301-1097; Q12406 1-477; Q05123 1-467; P53330 1-157)", "values": [{"measurement": "Kd", "setting": "[4]", "result": 510, "unit": "nM"}, {"measurement": "Kd", "setting": "[5]", "result": 460, "unit": "nM"}]}
{"molecule": "Sth1_(301–1097) (from UniProt P32597 301-1097) (domain or fragment)", "values": [{"measurement": "Kd", "setting": "[4]", "result": 670, "unit": "nM"}, {"measurement": "Kd", "setting": "[5]", "result": 670, "unit": "nM"}]}
{"molecule": "TCCATGTCCATGGATACGTGG / TCCACGTATCCATGGACATGGA [fluorescein DNA duplex]", "values": [{"measurement": "Kd", "setting": "[6]", "result": 520, "unit": "nM"}]}
{"molecule": "untagged ATPase fragment of TEV-cleaved Sth1_(301–1097) or Sth1_(365–1097) (from UniProt P32597 432-1097) (domain or fragment)", "values": [{"measurement": "percent of the ATPase lost after passage through the Ni-NTA column", "setting": "[7]", "result": 45, "unit": "%"}]}
{"molecule": "fluorescein DNA duplex (dsDNA) DNA 1: TCCATGTCCATGGATACGTGG DNA 2: TCCACGTATCCATGGACATGGA", "values": [{"measurement": "Kd", "setting": "Sth1(301-1097) [8]", "result": 280, "unit": "nM"}, {"measurement": "Kd", "setting": "[9]", "result": 4200, "unit": "nM"}, {"measurement": "Kd", "setting": "Arp7;Arp9;Sth1(301-1097)", "result": 3000, "unit": "nM"}, {"measurement": "Kd", "setting": "Sth1(365-1097)", "result": "700 ± 10", "unit": "nM"}]}
